This note sets out measurements from paper PMC8173604 (Cell, 2021).

Bounds are passed on as bounds.

The assay concerns the target purified HLA-A*02:01 MHC molecule (human | ). Nature of the assay: radioligand binding.

In turn, MLLGSMLYM [MLLGSMLYM, HLA-I peptide from S.iORF1/2] came in with an IC50 of less than 0.5 nM.

With GLITLSYHL [GLITLSYHL, HLA-I peptide from S.iORF1/2], the IC50 is less than 0.5 nM.
